Test: soluble on expression in E. coli; label from the status in PepcDB or PDB records
In the case of “MIAQLQKSLIQQNSTFEKKNNVEVAPIAKISLKDRLASLNNSAEQWKSRPERQPAVQQRRTSANVLQDLPIFQRAQQLHQQQQRPQSFPVVQEKPCDITSGLKKFFGSNPTTSGASSSLPKISEITASNDIDLDAISSKATPVLKTVTRPRAPNRKKSDKSSTFDERIRLDAVKIDEEAFAVVEEEPEKLETQEQAIAAIQGAKQLLKSPTKVSPYPDVMLIQVRGSKNVDVRLVAPAMSSVHEVACFVVVHQKHLMKYEGLYSNILEKTKASQLCIEILGKSDLNCTAESIVTVTGASRSTLSKLLFCSENSESSSENNNYHQASSVEPFETTVAKLNLVLRIAGDNTAETCSRRERLSYEIMKPSEVLIFDFGSEIYVWTGRYSNKVSSAYAQEYAKQLMKKPVKNGKFILGDAESIDQDGRPEWTLSRKIHQGVLDTLFKAKFSDWPETREVLTTCKPRALISKKNPEVKTYEDVKVVNQDDEVADLVERMLQEQELDPILVLEDQEIDRKIHDVISEDRSLWVLRGEVLQSIEEFTEHFDSRRCYVLRWKYRIQKSGVRRIKTGKEEERETGRSRIAFWYWLGEHTTPKQHGLCALRIKEIDRDNSPRIRIADGNEPALFLALFDGKFMVSSDISEMKPLRRYVVIGANSRETSLREIDDLNSPLRSHAAYIEVEKDILGPSSVVCGANCTEDQVHFVLAHAEYMRQKAGVKGNSAEIEVEGDKKSRSWVNSNGRKRAMRVWRLFDNESEQVNHLSGHKNCAFTFSQQVLKETILIDVGDALWLWSEEVITTFALKVAEKYWKDRSGPAKVVYKGAEPEQFKGLFMKWEMFEVEDDKPSDPPRDVSDLLKERCRTFSLEELKERTSLPAGMDMRRLESYLTDDDFMKVFKIERSEFYAQKTWKQNDARKRVGLF”, the “soluble on expression in E. coli” value is reported as “not soluble”. In the case of “MQIVKKEKFILKEYTFENGRTIPVQMGYETYGTLNRERSNVILICHYFSATSHAAGKYTAHDEESGWWDGLIGPGKAIDTNQYFVICTDNLCNVQVKNPHVITTGPKSINPKTGDEYAMDFPVFTFLDVARMQCELIKDMGIARLHAVMGPSAGGMIAQQWAVHYPHMVERMIGVITNPQNPIITSVNVAQNAIEAIRLDPSWKGGKYGEEQPMKGLQLANRMMFMNAFDEHFYETTYPRNSIEVEPYEKVSSLTSFEKEINKLTYRSIELVDANSWMYTAKAVLLHDIAHGFSSLEEALSNVEANVLMIPCKQDLLQPSRYNYKMVDLLQKQGKYAEVYEIESINGHMAGVFDIHLFEKKVYEFLNRKVSSFV”, the “soluble on expression in E. coli” value is reported as “not soluble”. For “MHFFDTHTHLNYLQQFTGEPLSQLIDNAKQADVQKILVVAVKEADFKTIQNMTALFPDNLCYGLGLHPLYIQEHAENDLILLEQALKNRDTNCTAVAEIGLERAIPDLLTDELWAKQCHFFESQLYLAKQFNLPVNIHSRKTHDQIFTFLKRIPLSKLGVVHGFSGSYDQAKRFVDLGYKIGVGGTITYERANKTRQAIAKLPLDALVLETDSPDMPVFGFQGQPNRPERIVESFKALCTLRNEPAELIKKLTWENACQIFSLEHHHHHH”, the “soluble on expression in E. coli” value was “not soluble”. In the case of “MVLPKKEFVLSHTFTDVSKMEKDISVFSPGEEHFNVSWNMSISCEGDHLGVFLHCHKSRGKETMWTIDTEHQFTLKTSSGKAYREDDNFNFQFSNAHSYGNGTTEFISWNKLIKDYLIDDVITVEAAVKIIKTTGISKKALKGFEKSNEEFSDVVLAVGDKEFFVLKQFLAYHSSYFKSLLLGKFAESDQKEVTLQDIDPTDFQNLLEVLYGEPAIDDETIDGILHLAHMYDMSVPLRKCEEFLINESEKSMKDQLKIAKQYQLEKLKKACLLKINTVDEIKAAVAGKLSDMDPTVVAALF”, the “soluble on expression in E. coli” value is reported as “not soluble”. In the case of “MSLEPASAPKVERLEVSAYTVPTETPESDGTIAWSETTLVMVRMAACGAEGLGYTFADVATAALIDAHLKDAVVGHNPLNIPELWSTMVRKVRNLGRPGVCSMAISAVDNALWDLKARLLHLSVADLLGRAHDSIGAYGSGGFTSYSDEELRQQLTGWIGQGLTQVKMKIGSDPASDLARVRSARGAIGPDAELFVDANGAYDRKQALAKAAAFADLGVSWFEEPVSSDDLAGLRLIRERAPAGMRIAAGEYGYDSFYFRRMLEAEAVDVLQGDATRCAGITGFLAAGNLSTSFSTPFSAHTAPSLHAHAACALTSAINVEYFFDHYRIEQMFFDGALVPSNGVLRPDSTRPGFGLECKLSDMEKYRVYGNVTTEGHHHHHH”, the “soluble on expression in E. coli” value is reported as “not soluble”. For “MIDMALTDDIILLGQVPLFAGFSDDQLRLIAFGAERRRVSAGQILFREHSPAECAFAVTSGHFELFTAGRDGKPLLQATPGKGALLSELALFTLCERKFTAVAVEDSEVIRITRILFHRLVEEFPEVADIVSARIRDNIAALAAGAARLQNRFV”, the “soluble on expression in E. coli” value was “not soluble”. With “MSLANFVHEGDLPDGVFADAEIIAIDSETMGLRLRRDPLCVVQLSAGDGDAHVVRLSRPDYDCPNLKALLTNPKVLKLFHFGRFDIAMFELHLGVVTAPVYCTKIASKLARTYTDRHGLKDVTRELLGVELSKVQQSSDWGAPSLSVDQVAYAASDVLHLHGLRLKLNAMLEREGRMALAQHAFDYLPHRASLDLAGWEEMDIFAHSEGHHHHHH” the “soluble on expression in E. coli” value was “soluble”. In the case of “MMGNDSYSSNRGSSRDVLSFLQNFLGGFYAKYGIEVKLVGGLSLSKFYYAFDAERNQFLARHFLPVLSYIKKDFNARAALGIVNVDIYEPGFNFIFGLAHPGLKVAVVSLYRLYPEFYGNPPDRKLLKERALKEVMHELGHVFGLGHCPNPKCVMHFSNSIIDTDIKSWMYCESCLRKLEKNLARSHVLEHHHHHH”, the “soluble on expression in E. coli” value is reported as “not soluble”. In the case of “MAMGQLQHGIDDENATKQTQKYRDAEQSKKTAYDQAVAAAKAILNKQTGSNSDKAAVDRALQQVTSTKDALNGDAKLAEAKAAARQNLGTLNHITNAQRTALEGQINQATTVDGVNTVKTNANTLDGAMNSLQGAINDKDATLRNQNYLDADESKRNAYTQAVTAAEGILNKQTGGNTSKADVDNALNAVTRAKAALNGAENLRNAKTSATNTINGLPNLTQLQKDNLKHQVEQAQNVVGVNGVKDKGNLEHHHHHH”, the “soluble on expression in E. coli” value is reported as “soluble”. In the case of “MKERMQKTSAQAHDFPQRARTESEWYEGVQTFMWMTEDNIVEVPFDKEHLLEIILSPSNLNKAYKAVVRNNGSGGIDKMSCEQLLSWLKANKDELIISLQSGTYRPNPVRRVEIPKDNGKKRLLGIPTVVDRLVQQAINQVLTLIYERQFSKTSYGFRPQRGCHDALRKAQKIVSEGYIYVVDLDLERFFDTVSHSKLIEILSRTIKDGRVISLIHKYLRSGVINRGMFEMSTEGTPQGGPLSPLLSNIMLNELDKELERRGHPFVRYADDAMIFCKSKRAAKRVRESITLFIEGKLFLKVNHEKTVVSYVKGVKFLGYSFYVKKGDCILLVHSKSKNKMKSKLKELTSRSNGWGYEKRKQKLKDYIRGWIAYFCLAQMKRLCIETDEWLRRRIRMCIWKSWKNAKTRVANLKKCGVSEWQAYQWGNTRLGYWRVSNSPIVTFVMSNDKLRKAGYMEFMDCYLKWCPKLEHHHHHH”, the “soluble on expression in E. coli” value is reported as “soluble”. In the case of “MGHHHHHHGGHMSLDYQKEYERKLISPEEAANLVKDGMHIEIGGSANTALIIDKYLAKRKDELSHVEVGTFIDIAHYEFLKADPEQEKIKWESCFLYEPVRKCSKELGPCVHRPGVLSDAGYIAKELGGVLKGGKKYTDIAFLVTTPMDRHGFFNFGVTCTFLKSIAEGAEKVVVVVKKDMPWVNGGYDECIHISEVDYIVEDNEFPTPFLPFLPPPSKEDEMIAENIMEAGLIENGSTLQVGIGGLPNTVVRMLKEAGLKDLGIHTEMMGDGLMELMEEGIVTNQNKKLDRGKAVFSFALGTRKLYDFLDRNPEVATYPVEYTNNPFVVAQQPKMFSLNQVAQIDLMGQINSGQIGLTSPSGKIFQISGTGGQLDFVLGCFYSFDRQGKSVLATYSTYNGTSRIIPALPTGAGVTVPRSVVQYVATEWGIAYLRGLPIYKRAAAMIQLAHPDHRDWLEEEARKLGILPPKYSIPAGKADGVIYRRDEGGS”, the “soluble on expression in E. coli” value is reported as “soluble”. In the case of “MPCRLTRLFGIEFPIIQAPMAGVQGSALAIAVSEAGGLGSLPCAMLSLEALEAELTAIRSQTAKPINVNFFCHREPVAQAAKQAAWLEQLAPYFAEFNLDPNAQPAGAQRTPYSKAQAEVLAKFKPEVVSFHFGLPDEELLLEIKSWGSKVISTATTVEEALWLEARGADAIIAQGLEAGGHRGHFLSEDLTEQLGTFSLLPQIIAAVEIPVIAAGGIVDATTVRAAMTMGASAVQVGTAYLLCPECNTSAIHREALQSDAAQHTALTNLFSGRPARGIVNRFMAEMGPMNEAVPDFPLASSAVAGLRTAAERLGFWDFSPLWCGQNASGCRAIPAADLTRSFVLSLPSSCVEPQEKSGAAALEHHHHHH”, the “soluble on expression in E. coli” value is reported as “not soluble”. With “MNGRVDYLVTEEEINLTRGPSGLGFNIVGGTDQQYVSNDSGIYVSRIKENGAAALDGRLQEGDKILSVNGQDLKNLLHQDAVDLFRNAGYAVSLRVQHRLQVQNGPI” the “soluble on expression in E. coli” value was “soluble”. For “MCYIEITKDNIEDNHICCALSTKQYEHAVNEKKRWLKARMDEGLVFYRLHERAKVFIEYLPANEAWVPINAPNFMYINCLWVSGRYKNNGHAKRLLDKCIADAKACGMDGIIHIAGKKKLPYLSDKHFFEHMGFTLQDEAAPYFQLMALTWNGLADSPAFKSQVKSDSINEKGITIYYTAQCPFAVGMINDLRELTEKKGVQFQSIQLSSKEEAQKSPAIWTTFSVFFDGRFVTHEIMSINKFEKLLNTLA”, the “soluble on expression in E. coli” value was “not soluble”. In the case of “MGSDKIHHHHHHMDKFKTIALFMSTIETGSFSATAKKHATDPSTVSKAIKRLEEQLGLQLLYRSTRQLSLTSAGQKYADTVGSLYQQLESCEHELKSANNSYSGALKINLPVSYGRVYMLPMLSRFKKAYPDIELEVSFNDQYVDMISDAVDVSIRSGTLNDSRLVAQKLSPMAFVICASSDLLATRKVDISNEGLVALPWVLFRFKQTGKTMPINFSYQGCHIDIEPKKVTIVDDGETMAQMCAEGLGLSLMPHFNAKALVVAGKMKVVAILDEFPSSGVFIVYPKRKDLPRRTQVFIEFVKDYLKEIGETPSKTWLDTSINSS”, the “soluble on expression in E. coli” value is reported as “not soluble”. In the case of “MGSDKIHHHHHHMIIESRIEKGKPVVGMETTVFVHGLPRKEAIELFRRAKEISREKGFQLAVIGILKGKIVAGMSEEELEAMMREGADKVGTREIPIVVAEGKNAATTVSATIFLSRRIGIEVVVTGGTGGVHPGRVDVSQDLTEMSSSRAVLVSSGIKSILDVEATFEMLETLEIPLVGFRTNEFPLFFSRKSGRRVPRIENVEEVLKIYESMKEMELEKTLMVLNPVPEEYEIPHDEIERLLEKIELEVEGKEVTPFLLKKLVEMTNGRTLKANLALLEENVKLAGEIAVKLKRS”, the “soluble on expression in E. coli” value is reported as “not soluble”. In the case of “MTKLALFVRLEAKPGQEAALADFLASALPLANAESGTTAWFALKFGPSTFGVFDAFADEAGRQAHLNGQIAAALMANAATLLSSPPNIEKVELLAAKLPA”, the “soluble on expression in E. coli” value is reported as “soluble”. In the case of “MEKPSPTRRQTSSLSTISNGMTMTNDNRDTTNTNSGSTSSNNSQPSSSSTPPAASGPVTDRTKVNYVPKSDDPSSFQYYPDDPENPVNKYKFALKADSQYYDPCEESSKLSFQCLERNDYDRSKCQEYFDAYRECKKQWLTARRKNRQQWE”, the “soluble on expression in E. coli” value is reported as “soluble”. In the case of “MIDTVSVVLFSKKSHIKIARSVLRDFLQMHESSDSLIVDMEIVLGEILANVIKHTYKNDETKRIIVSYTLKDEVFHMLVRDFGPPVDPTRLKPMPPDLENPREGGYGFYIISRVTDEFRVRPLRNGNLTVVKKKLR”, the “soluble on expression in E. coli” value is reported as “soluble”. For “MRIAILGGGVAGSTLAYLLSRINYEVTIFDINQHYVKPCGDIVPNIYTPPFNWKETFGIRRFSFYIDGEKIYDVEYRHTKWLVIDKWKWINDMRKSSKVIVTHDNNAKEFDYVIDSRGPYPMDREVVYTTRAIIETEEFDDEAILEFNTRYTGFYWIFPSKENEYNIGAGFLEYKNSKELLNYYLRKRFKNFEVKDIRGAPISIGSVKNKKLRIGEARGLVFPLSGEGIRPSAISAEYAFEAIHKEKDLDGFLNEKLSIIEKRIKIQKMLLDLYRYSSLNLRKTFMRIFFKNEVLIDTYLEDKMDLNGIIESLKSVRANGGIIRKFEEQERLEHHHHHH”, the “soluble on expression in E. coli” value was “not soluble”.

Source: the DeepSol protein solubility set
